In test [1] the target is T1, human CTLA4-Fc (Fitzgerald #30R-CD152) (human, UniProt P16410 38-152, biotinylated in the inhibition ELISAs (sites not given)).
T1 construct: Bought reagent; Used plain (coated or immobilised) and biotinylated (in solution); also called biotinylated-CTLA4; human CTLA-4 (Fitzgerald); not shown: Fc of the bought fusion protein
T1 sequence: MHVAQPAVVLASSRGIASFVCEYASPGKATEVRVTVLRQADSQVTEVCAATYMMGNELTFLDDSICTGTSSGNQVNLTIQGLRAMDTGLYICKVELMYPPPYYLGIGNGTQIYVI
Description: binding ELISA on coated CTLA4-Fc; against wild type and H79A; upper end tied to 1040 by Table 7. Here is the method:
(§1) Similar to the protocol described in Example 2, 96-well flat bottom high binding plates (Greiner #655074) were coated with either CTLA4-Fc (Fitzgerald #30R-CD152) or CD28-Fc (kindly provided by Simon Davis, Oxford University) by incubating overnight at 4° C. The plates were washed (Wash buffer: PBS+0.05% Tween 20 (PBST) Medicago #09-9410-100) and then blocked in PBST+3% BSA (Merck, #1.12018.0100). The plates were washed again and sample or controls (serially diluted ⅓ from 50 000-0001 nM) were added to the wells. The samples were incubated for 1 h at room temperature and then washed. Detection antibody, goat-anti-human IgG Fcγ-HRP (Jackson, #109-035-098) was added and the plates were subsequently developed using SuperSignal Pico Chemiluminescent substrate (Thermo #37069) and detected with an Envision reader (Perkin Elmer).
(§2) Binding to CD28 was too low for detection by this assay (data not shown).
In general terms: ELISA stands for enzyme-linked immunosorbent assay.

For test [2], the target named is T1, human CTLA4-Fc (Fitzgerald #30R-CD152). Kind of test: binding ELISA: CTLA4-Fc coated on the plate, sample serially diluted, detection with goat anti-human IgG Fcγ-HRP, chemiluminescence, data normalised to %. The method, then:
as §1, §2

Test [3] has the same target. Kind of test: binding ELISA on coated CTLA4-Fc; against wild type and H79A; lower end tied to 1042 by Table 7. The method, then:
as §1, §2

The target is the same in test [4]. Kind of test: SPR (Biacore); ratio [Kd for CD28] / [Kd for CTLA-4] compared with wild type. Here is the method: (§3) The phage clones selected from Example 1 were re-cloned according to standard protocols into a fusion protein-format, with each clone fused to γ2/γ4 Fc. The fusion proteins were expressed in HEK293 cells. Supernatants culure of the cells were collected and the expressed fusion proteins were assayed using both ELISA and Biacore™ according to the methods set out below.
Either CTLA4-Fc (Fitzgerald #30R-CD152) or CD28-Fc (R&D systems 342-CD) was immobilized to the Biacore™ senshorship, CM5, using conventional amine coupling. The CD86 mutant molecules and controls (serially diluted ½ 100-1.5 nM) were analyzed for binding in HBs-P (GE, BR-1003-69) at a flow rate […]. The association was followed for 3 minutes and the dissociation for 10 minutes. Regeneration was performed twice using 5 mM NaOH for 30 seconds. The kinetic parameters and the affinity constants were calculated using BIAevaluation 4.1 software.
For orientation: In SPR one partner is held on a chip, and binding of the other changes the refractive index at the surface.

Test [5] shares this target. Description: ELISA; ratio [EC50 for CD28] / [EC50 for CTLA-4] compared with wild type. The method, then:
as §3
as §1, with “96-well” for “Similar to the protocol described in Example 2, 96-well”, “(R&D systems 342-CD)” for “(kindly provided by Simon Davis, Oxford University)”, “⅕” for “⅓”, “200-0.001 μg/ml)” for “50 000-0001 nM)”, “Elmer). EC50 values were calculated for both CTLA4 and CD28. The binding ratio (EC50 binding ratio=[EC50 for CD28]÷[EC50 for CTLA-4]) was calculated for each polypeptide and is shown in Table 4.” for “Elmer).”

Bounds are passed on as bounds.

Results on 4 molecules are retold here after patent US20160304580A1 (ALLIGATOR BIOSCIENCE, published 2016).

In general, EC50 (read off the curve) refers to the concentration that produces a half-maximal response.

B1: CD86 mutant clone 1040 expressed as a gamma2/gamma4 fusion (Fc fusion)
chain: APLKIQAYFNETADLPCQFANSQNLSLSELVVFWQDQENLVLNEVYLGKERFDSVDSKYMGRTSFDSDSWTLRLHNLQIKDKGRYQCIIHHKKPTGMINIHQMNSELSVLA
notes: Purified on protein A; not shown: gamma2/gamma4 Fc
Consider B1, for which the “fold improvement of EC50” value in test [1] lay in the range of 2 to 67 fold. In addition, the half-maximal effective concentration (EC50 (read off the curve)) in test [2] was about 8 ng/mL.

B2: CD86 mutant clone 1042 expressed as a gamma2/gamma4 fusion (Fc fusion)
chain: APLKIQAYFNETADLPCQFANSQNLSLSELVVFWQDQENLVLNEVYLGKEIFDSVSSKYMGRTSFDSDSWTLRLHNLQIKDKGIYQCIIHHKKPSGMVKIHQMDSELSVLA
notes: as for B1
As to B2, the “fold improvement of EC50” value in test [3] lay within 2 to 67 fold.

B3: CD86 mutant clone 904 fused to γ2/γ4 Fc (Fc fusion)
chain: LKIQAYFNETADLPCQFANSQNQSLSELIVFWQDQENLVLNEVYLGKERFDAVDSKYMGRTSFDSDSWTLRLHNLQIKDKGIYQCIIHHKKPSGMVKIHQMDSELSVLA
notes: not shown: γ2/γ4 Fc
For B3, in test [4], the “fold of Kd binding ratio over wild type CD86” value is over 4 times.

B4: CD86 mutant clone 907 fused to γ2/γ4 Fc (Fc fusion)
chain: LKIQAYFNETADLPCQFANSQNQSLSELVVFWQDQENLVLNEVYLGKEKFDSVHSKYMGRTSFDSDSWTLRLHNLQIKDKGLYQCIIHHKKPTGMIKIHEMNSELSVLA
notes: not shown: γ2/γ4 Fc
Turning to B4, in test [5], the “fold of EC50 binding ratio over wild-type CD86” value was about 10 times.
